Positions count from the first letter of the chain named. Names and notes keep the numbering of the source.
Key:
M146L PS1 γ-secretase = biological target: T1, M146L PS1 γ-secretase (Homo sapiens, UniProt P49768, M146L); assay: In vitro N1-Sb1 γ-secretase assay, membrane of N2a cells expressing M146L PS1; format: biochemical, murine; conditions: M146L PS1, N2a membrane
T1 construct: total membrane
Protocol: (§1) HeLa membrane fraction was isolated from HeLa-S3 cells (National Cell Culture Center). The cell pellet was resuspended in Buffer A (50 mM MES, 150 mM KCl, 5 mM CaCl2, 5 mM MgCl2) and lysed by passage through a French Press. N2a cells (murine neuroblastoma cells) over-expressing wild-type PS1, or mutants M146L or E280A, were obtained from Dr. Sangram Sisodia (University of Chicago, Chicago, Ill.). These cells were maintained in 50% Dulbecco's modified Eagle's medium high glucose, 50% Opti-Mem Reduced Serum Media, and 10% fetal calf serum. Cultured cells were pelleted by centrifugation and resuspended in hypotonic buffer (40 mM Tris, pH 7.4, 10 mM NaCl, 1 mM EDTA, and 0.5 mM DTT) for 20 minutes before being lysed with a dounce homogenizer. Nuclear debris from the HeLa and N2a cells were pelleted at 3000 rpm for 30 minutes. The resulting supernatants were ultracentrifuged at 100,000×g for 1 hour. The pellet that contained total cell membrane was resuspended in Buffer A. Mouse brains overexpressing knock-in wild type or M146V PS1 (gift from Dr. Hui Zheng, Amylin Pharmaceuticals, San Diego, Calif.) were homogenized with dounce homogenizer. The cell lysate was centrifuged at 3000 rpm for 30 minutes. The supernatants were ultracentrifuged at 100,000×g for 1 hour. Protein concentration was determined with the DC Protein Assay Kit according to the manufacturer's instructions (Bio-Rad, Hercules, Calif.).
(§2) An in vitro γ-secretase assay using a novel recombinant APP-derived substrate (termed “Sb4”) is disclosed in co-pending application U.S. Ser. No. 12/776,141. In the present assay based on a Notch-derived substrate, N1-Sb1 was incubated with the cell membrane fraction, prepared as described above, in the presence of 0.25% CHAPSO and 1×PIPES buffer (50 mM PIPES, pH 7.0, 150 mM KCl, 5 mM CaCl2, 5 mM MgCl2. The reaction was incubated at 37° C. for 2 hours. The Perkin Elmer AlphaScreen™ detection system was employed to assay for Notch cleavage. AlphaScreen (PerkinElmer Life and Analytical Sciences, Shelton, Conn.) is a bead based non-radioactive Amplified Luminescent Proximity Homogeneous Assay (ALPHA). When a biological interaction brings the beads together, a cascade of chemical reactions acts to produce a greatly amplified signal. Specifically, upon laser excitation, a photosensitizer in the “Donor” bead converts ambient (triplet) oxygen to the more reactive singlet state. The singlet state oxygen molecules diffuse into the solvent, and may react with a thioxene derivative in the Acceptor bead if nearby, generating chemiluminescence at 370 nm that further activates fluorophores contained in the same bead. The fluorophores subsequently emit light at 520-620 nm. In the absence of a specific biological interaction, the singlet state oxygen molecules produced by the donor bead go undetected without the close proximity of the acceptor bead. As a result no fluorescence signal at 520-620 nm is produced.
(§3) In the present system, antibody SM320, Protein A-conjugated acceptor beads, and Streptavidin-conjugated donor beads (PerkinElmer) were added to the reaction at a final concentration of 0.2 μg/ml, 2.5 μg/ml and 5 μg/ml, respectively (diagrammed in FIG. 5A). The reaction was incubated in the dark at room-temperature for 4 hours. The ALPHA signal was detected using the Envision plate reader (Perkin Elmer). The reactions were excited at 680 nm and signal was detected at 615 nm.
(§4) The effects of PS1 FAD mutations on Notch cleavage were determined using the new γ-secretase assay described in Example 2. The activities of two PS1 FAD mutations—PS1 M146L and E280A were compared against wild-type PS1 (WT), which has been previously studied (25). Total membrane was isolated from N2a cells that stably express WT, M146L, or E280A mutants. N1-Sb1 was incubated with these membranes and the resulting cN1-Sb1 was detected with SM320. […] The M146L and E280A mutants had 40% and 14% activity remaining, respectively, compared to the activity of the wild type (FIG. 7A). […]

[1] = biological target: T2, γ-secretase (HeLa membrane) (Homo sapiens, UniProt P49768); assay: In vitro N1-Sb1 γ-secretase assay (ALPHA detection with SM320), HeLa membrane; format: biochemical
T2 construct: host or cells: HeLa-S3 cells, total membrane fraction
Protocol: as §1
An in vitro γ-secretase assay using a novel recombinant APP-derived substrate (termed “Sb4”) is disclosed in co-pending application U.S. Ser. No. 12/776,141. In the present assay based on a Notch-derived substrate, N1-Sb1 was incubated with the cell membrane fraction, prepared as described above, in the presence of 0.25% CHAPSO and 1×PIPES buffer (50 mM PIPES, pH 7.0, 150 mM KCl, 5 mM CaCl2, 5 mM MgCl2. The reaction was incubated at 37° C. for 2 hours. The Perkin Elmer AlphaScreen™ detection system was employed to assay for Notch cleavage. AlphaScreen (PerkinElmer Life and Analytical Sciences, Shelton, Conn.) is a bead based non-radioactive Amplified Luminescent Proximity Homogeneous Assay (ALPHA). When a biological interaction brings the beads together, a cascade of chemical reactions acts to produce a greatly amplified signal. Specifically, upon laser excitation, a photosensitizer in the “Donor” bead converts ambient (triplet) oxygen to the more reactive singlet state. […] As a result no fluorescence signal at 520-620 nm is produced.
as §3, with “The reaction was incubated in the dark at room-temperature for 4 hours.” left out
HeLa membrane was incubated with N1-Sb1 substrate in the presence of 0.25% CHAPSO. The γ-secretase cleavage product (cN1-Sb1) was detected by the PerkinElmer proximity assay (ALPHA) using the SM320 antibody, Protein A-conjugated acceptor-beads (which bind SM320) and streptavidin-conjugated donor-beads (which bind biotin) (FIG. 5A). cN1-Sb1 levels in DMSO-treated assay was 10-fold higher than in the presence of the inhibitor L-685,458 (L458; structure shown below)-treated assay. […]

E280A PS1 γ-secretase = biological target: T3, E280A PS1 γ-secretase (Homo sapiens, UniProt P49768, E280A); assay: In vitro N1-Sb1 γ-secretase assay, membrane of N2a cells expressing E280A PS1; format: biochemical, murine; conditions: E280A PS1, N2a membrane
T3 construct: total membrane
Protocol: as §1, §2, §3, §4

[2] = biological target: T4, wild-type PS1 γ-secretase (Homo sapiens, UniProt P49768); assay: In vitro N1-Sb1 γ-secretase assay, membrane of N2a cells expressing wild-type PS1; format: biochemical, murine; conditions: for reactivity (rate of γ-secretase cleavage) compared with WT substrate: WT PS1, N2a membrane
T4 construct: total membrane
Protocol: as §1, §2, §3, §4

[3] = tested on: M146V PS1 γ-secretase (knock-in mouse brain); assay: In vitro N1-Sb1 γ-secretase assay, knock-in M146V PS1 mouse brain membrane; format: biochemical
Protocol: as §1
(§5) An in vitro γ-secretase assay using a novel recombinant APP-derived substrate (termed “Sb4”) is disclosed in co-pending application U.S. Ser. No. 12/776,141. […] As a result no fluorescence signal at 520-620 nm is produced.
as §3, with “The reaction was incubated in the dark at room-temperature for 4 hours.” left out
(§6) Mouse brain specimens were obtained that either expressed knock-in wild type PS1 or the M146V PS1 mutation (25, 26). […] The cN1-Sb1 cleavage product was detected with the new in-vitro γ-secretase assay of Example 2. […]

[4] = biological target: T5, WT PS1 γ-secretase (knock-in mouse brain) (Mus musculus, UniProt P49769); assay: In vitro N1-Sb1 γ-secretase assay, knock-in wild type PS1 mouse brain membrane; format: biochemical
T5 construct: Total membrane from these mouse brains was isolated; tissue gift from Dr. Hui Zheng; host or cells: mouse brain (PS1 knock-in), total membrane
Protocol: as §1, with “The pellet that contained total cell membrane was resuspended in Buffer A. Mouse brains overexpressing knock-in wild type or M146V PS1 (gift from Dr. Hui Zheng, Amylin Pharmaceuticals, San Diego, Calif.) were homogenized with dounce homogenizer. The cell lysate was centrifuged at 3000 rpm for 30 minutes. The supernatants were ultracentrifuged at 100,000×g for 1 hour.” left out
as §5
as §3, with “The reaction was incubated in the dark at room-temperature for 4 hours.” left out
as §6

[5] = read-out: Km for N1-Sb1 cleavage

B1: N1-Sb1: biotinylated recombinant substrate: human Notch1 fragment (residues 1733-1812) with AviTag (protein)
chain: PAQLHFMYVAAAAFVLLFFVGCGVLLSRKRRRQHGQLWFPEGFKVSEASKKKRREPLGEDSVGLKPLKNASDGALMDDNQN
modifications: biotinylated; Notch substrate N1Sb1 (NTM2)
notes: biotinylated recombinant substrate: human Notch1 fragment (residues 1733-1812) with AviTag
N1-Sb1 cleavage activity remaining compared to wild type PS1 (M146L PS1 γ-secretase): 40%
Vmax for N1-Sb1 cleavage (M146L PS1 γ-secretase): 163 U/μg/min
Km (M146L PS1 γ-secretase; [5]): 0.049 µM
Vmax of N1-Sb1 cleavage ([1]; arbitrary units): 38 Unit/μg/min
Km ([1]; read-out: apparent Km of N1-Sb1 cleavage by γ-secretase): 0.15 ± 0.03 µM
N1-Sb1 cleavage activity remaining compared to wild type PS1 (E280A PS1 γ-secretase): 14%
Vmax for N1-Sb1 cleavage (E280A PS1 γ-secretase): 49 U/μg/min
Km (E280A PS1 γ-secretase; [5]): 0.05 µM
Vmax for N1-Sb1 cleavage ([2]; PS1 wild-type, N2a membrane): 293 U/μg/min
Km ([2]; PS1 wild-type, N2a membrane, read-out: Km for N1-Sb1 cleavage): 0.07 µM
Notch (N1-Sb1) cleavage activity compared to wild-type PS1 ([3]; M146V PS1 mouse brain membrane): less activity
Vmax for N1-Sb1 cleavage ([3]; M146V PS1 mouse brain membrane): 40 U/μg/min
Km ([3]; M146V PS1 mouse brain membrane, read-out: Km for N1-Sb1 cleavage): 0.048 µM
Vmax for N1-Sb1 cleavage ([4]; WT PS1 mouse brain membrane): 52 U/μg/min
Km ([4]; WT PS1 mouse brain membrane, read-out: Km for N1-Sb1 cleavage): 0.06 µM

B2: C1752A: N1-Sb1 substrate with P2 residue Cys 1752 substituted with Ala (protein, UniProt P46531 1733-1812, looked up, variant C1752A)
chain: QLHFMYVAAAAFVLLFFVGAGVLLSRKRRRQHGQLWFPEGFKVSEASKKKRREPLGEDSVGLKPLKNASDGALMDDNQNE
modifications: biotinylated AviTag
notes: N1-Sb1 substrate with P2 residue Cys 1752 substituted with Ala
reactivity (rate of γ-secretase cleavage) compared with WT substrate (M146L PS1 γ-secretase): 20-30%
reactivity (rate of γ-secretase cleavage) compared with WT substrate (E280A PS1 γ-secretase): 20-30%
reactivity (rate of γ-secretase cleavage) compared with WT substrate [2]: 20-30%

B3: C1752V: N1-Sb1 substrate with P2 residue Cys 1752 substituted with Val (protein, UniProt P46531 1733-1812, looked up, variant C1752V)
chain: B2 chain with A20V
modifications: biotinylated AviTag
notes: N1-Sb1 substrate with P2 residue Cys 1752 substituted with Val
reactivity (rate of γ-secretase cleavage) compared with WT substrate (M146L PS1 γ-secretase): 141.3±17.9%
reactivity (rate of γ-secretase cleavage) compared with WT substrate (E280A PS1 γ-secretase): no effect
reactivity (rate of γ-secretase cleavage) compared with WT substrate [2]: no effect

B4: C1752M: N1-Sb1 substrate with P2 residue Cys 1752 substituted with Met (protein, UniProt P46531 1733-1812, looked up, variant C1752M)
chain: B2 chain with A20M
modifications: biotinylated AviTag
notes: N1-Sb1 substrate with P2 residue Cys 1752 substituted with Met
reactivity (rate of γ-secretase cleavage) compared with WT substrate (M146L PS1 γ-secretase): 166.4±6.1%
reactivity (rate of γ-secretase cleavage) compared with WT substrate (E280A PS1 γ-secretase): 185.5±7.4%
reactivity (rate of γ-secretase cleavage) compared with WT substrate [2]: no effect
reactivity (rate of γ-secretase cleavage) compared with WT substrate ([3]; M146V knock-in PS1 mouse brain): 127.4±3.7%
reactivity (rate of γ-secretase cleavage) compared with WT substrate ([4]; WT PS1 knock-in mouse brain): no effect

From US9632088B2, “Methods and compositions for gamma-secretase assay” (MEMORIAL SLOAN-KETTERING CANCER CENTER, priority 2010, dated 2017)
